Data on four molecules can be found in PMC11645250.

Data set [1] concerns the target IBDV VP3 D1–D2–D3 construct (residues 1–221) (infectious bursal disease virus (IBDV)). The data set is described as follows: SEC-MALS. In general terms: In gel filtration, larger molecules generally elute earlier.
Data set [2] shares this target. The data set can be described thus: cross-linking.
For data set [3] the target is unchanged. The data set is described as follows: cross-linking. The source holds these as a separate data set.
For data set [4] the target is unchanged. The data set is described as follows: SAXS.
The target of data set [5] is IBDV VP3 N-terminal construct (residues 1–81, D1 domain) (infectious bursal disease virus (IBDV)). The data set is described as follows: SEC-MALS.
Data set [6] has the same target. The data set is described as follows: cross-linking.
For data set [7] the target is unchanged. The data set can be described thus: SAXS.
For data set [8], the target named is IBDV VP3 central domains construct (residues 89–221, D2–D3) (infectious bursal disease virus (IBDV)). The data set is described as follows: cross-linking.
The target in data set [9] is T1, VP3 1-81 (D1) (Infectious bursal disease virus (Soroa …, UniProt Q9WI42 756-836)).
T1 sequence: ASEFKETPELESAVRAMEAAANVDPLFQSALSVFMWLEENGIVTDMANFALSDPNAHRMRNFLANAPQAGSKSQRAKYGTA
The data set is described as follows: EMSA. In general terms: A gel shift assay detects complexes by their altered migration in electrophoresis.

Where two headings read alike, the source gives them in different places.

What is called stoichiometry N is the number of molecules, sites or subunits per partner or assembly. “IBDV VP3 D1–D2–D3 construct (residues 1–221) (domain or fragment)” registered a % of total sample in the predominant (dimer) peak in data set [1] of 98.8%. For the same molecule, the stoichiometry N in [1] and in data set [4] was 2 in each case. Moreover, the % of protein in dimers and higher MW species after BS3 cross-linking was determined as 93.2% in [2] and 93.3% in [3].
For the molecule “IBDV VP3 N-terminal construct (residues 1–81, D1 domain) (domain or fragment)”, the stoichiometry N in data set [5] and in [7] was 2 throughout. Besides, in [6], the % of the band in the dimeric form after BS3 cross-linking is 96.9%.
As for “IBDV VP3 central domains construct (residues 89–221, D2–D3) (domain or fragment)”, the % dimerization/oligomerization after BS3 cross-linking in data set [8] amounted to 43.5%.

B1: 28 bp dsRNA (dsRNA)
RNA 1: AGAACCUGUUGAACAAAAGCCGAAUAAU
RNA 2: AUUAUUCGGCUUUUGUUCAACAGGUUCU
Consider B1, for which the binding result in data set [9] was “no binding”.
